Measurements as given in doi:10.1101/663153 (bioRxiv, 2019).

Biological target: T1, CysLTR2-GFP10-1D4 L129Q (human, UniProt Q9NS75 1-346, L129Q)
T1 sequence (looked up): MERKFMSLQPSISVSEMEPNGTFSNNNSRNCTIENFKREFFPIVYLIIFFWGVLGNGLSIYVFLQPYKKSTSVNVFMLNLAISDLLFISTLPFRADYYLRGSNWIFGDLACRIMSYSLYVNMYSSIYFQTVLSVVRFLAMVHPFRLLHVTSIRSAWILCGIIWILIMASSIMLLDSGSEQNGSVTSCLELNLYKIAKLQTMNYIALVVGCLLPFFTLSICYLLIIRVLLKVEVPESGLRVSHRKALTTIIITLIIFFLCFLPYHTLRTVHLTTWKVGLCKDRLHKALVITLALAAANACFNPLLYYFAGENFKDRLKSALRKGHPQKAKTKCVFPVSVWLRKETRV
Experiment: FRET or BRET

B1: β-Arrestin1-RLuc3 (natural protein, UniProt P49407 1-418, looked up)
chain: MGDKGTRVFKKASPNGKLTVYLGKRDFVDHIDLVDPVDGVVLVDPEYLKERRVYVTLTCAFRYGREDLDVLGLTFRKDLFVANVQSFPPAPEDKKPLTRLQERLIKKLGEHAYPFTFEIPPNLPCSVTLQPGPEDTGKACGVDYEVKAFCAENLEEKIHKRNSVRLVIRKVQYAPERPGPQPTAETTRQFLMSDKPLHLEASLDKEIYYHGEPISVNVHVTNNTNKTVKKIKISVRQYADICLFNTAQYKCPVAMEEADDTVAPSSTFCKVYTLTPFLANNREKRGLALDGKLKHEDTNLASSTLLREGANREILGIIVSYKVKVKLVVSRGGLLGDLASSDVAVELPFTLMHPKPKEEPPHREVPENETPVDTNLIELDTNDDDIVFEDFARQRLKGMKDDKEEEEDGTGSPQLNNR
B1 was tested, and the “ligand-independent net BRET^2 ratio” value was 0.00151 ± 0.0004.
